# What was measured:
# [1] = Platelet and white cell counts after standard heparin reversal, canine study; type: in vivo; details: dogs, 3 minutes post-reversal, resolved by about 30 minutes
# Method: Anticoagulation reversal was assessed by a number of standard coagulation tests performed upon samples of venous blood: activated clotting time (ACT), prothrombin time (PT), activated partial thromboplastin time (aPTT), thrombin clotting time (TCT), heparin concentration by assay for FXa inhibitory activity (FXa), white cell count (WBC), and platelet counts (PLT). Measurements were made 3 minutes prior to heparin reversal (baseline) and 3 minutes and 30 minutes post-administration of the heparin reversal agent. The "Heparin" row sets forth the observed reversal as a consequence of expected heparin metabolism or degradation alone.
# LMWH (LHN-1, Logiparin) [2] = test: Percent reversal of low molecular weight heparin anticoagulation, in vivo canine study, coagulation tests; parameters: species or system dogs; details: for aPTT reversal: Logiparin
# Method: Anticoagulation reversal was assessed by a number of standard coagulation tests performed upon samples of venous blood: activated clotting time (ACT), heparin concentration by assay for FXa inhibitory activity (FXa), thrombin clotting time (TCT), and heparin concentration by assay for FIIa inhibitory activity (FIIa). Measurements were made 3 minutes prior to heparin reversal (baseline) and 3 minutes, 10 minutes, and 30 minutes post-administration of the heparin reversal agent. […] The coagulation data were corrected for naturally occurring metabolism.
# [3] = Platelet and white blood cell count after LMWH reversal, canine study; type: in vivo; details: dogs, Logiparin
# Method: In addition to the measurements reported on Table 6, studies were conducted to measure the activated partial thromboplastin time (aPTT), platelet count, and white blood cell count. […] However, the [+18B] variant produced greater aPTT reversal than protamine at the 3, 10 and 30 minute measurements (64%, 95%, and 93%, respectively, as compared to 50%, 83%, and 78%, respectively, for protamine).
# LMWH (LHN-1, Logiparin) [4] = test: Percent reversal of LMWH anticoagulation, agents administered at different rates, canine study; type: in vivo, dogs
# Method: (§1) Anticoagulation reversal was assessed by a number of standard coagulation tests performed upon samples of venous blood in the manner described hereinabove. Measurements were made 3 minutes prior to heparin reversal (baseline) and 3 minutes, 10 minutes, and 30 minutes post-administration of the heparin reversal agent.
# [5] = Platelet count, leukocyte count and bleeding time after LMWH reversal at different rates, canine study; type: in vivo, dogs
# Method: (§2) The anticoagulation-reversing agents were administered rapidly over 10 seconds to maximize hemodynamic effects or more slowly over a 3 minute interval. Changes in LMWH anticoagulation occurring from metabolism alone were determined in a separate group of dogs not given any reversal agent.
# [6] = tested on: standard, unfractionated heparin; test: Factor Xa and IIa reversal after standard heparin, cell adhesion ligand analogs, canine study; type: in vivo; details: dogs, 3 min post administration
# Method: as §1, with “agent. […] Referring to FIGS. 4a through 4d, compound [+18RGD] performs as well, or better, than n-protamine in the standard coagulation tests performed in these studies.” for “agent.”
# [7] = Percent change in platelet count after Enoxaparin reversal, canine study; type: in vivo; details: dogs, agent over 10 seconds
# Method: (§3) Seven female dogs (mean weight 15-20 kg) received intravenous standard, unfractionated heparin (150 IU/kg IV) or LMWH (Enoxaparin, Rhone-Poulac, France; 100 IU/kg factor Xa activity) followed by reversal with commercial salmine protamine (n-protamine purchased from Eli Lilly, Indianapolis, Ind., 1.5 mg/kg (100 IU/mg) IV) or an anticoagulation-reversing agent which is a protamine-like peptide variant identified hereinbelow. In these studies, the anticoagulation-reversing agents were administered over a 10 second interval to maximize the hemodynamic effects.
# [8] = clinical use; cited from earlier work
# [9] = Hemodynamic studies and total toxicity score after LMWH reversal, canine study; details: dogs, Logiparin
# Method: (§4) Hemodynamic studies were conducted by measuring mean arterial pressure (MAP) in mm Mercury, maximum percent changes in cardiac output (CO) and systemic oxygen consumption (VO2), and heart rate (HR) in beats per minute. Measurements and calculations were made at baseline, before LMWH administration, 3 minutes before reversal, every 30 seconds for 5 minutes after reversal, and at 10, 20, and 30 minutes after reversal.
# Total toxicity scores (TTS) were developed that reflected maximum declines in each of four parameters (MAP, CO, VO2 and HR) over the first 5 minutes after reversal. The maximum changes occurring in an individual dog over the first 5 minutes were divided by the standard deviation derived from the entire group of tested animals and the four scores were added, resulting in a TTS for each individual dog. The TTS values for each dog were then summed to obtain an average TTS and SD for each peptide studied. The more negative the value of TTS, the more toxic the compound.
# [10] = Maximum hemodynamic changes and total toxicity score after Enoxaparin reversal, canine study; details: dogs, agent over 10 seconds
# Method: as §3
# [11] = Hemodynamic studies and total toxicity score after LMWH reversal at different rates, canine study; details: dogs, Logiparin
# Method: as §2, §4
# (§5) TTS were developed that reflected maximum declines in each of four parameters (MAP, CO, VO2 and HR) over the first 5 minutes after reversal in the same manner as described hereinabove.
# [12] = Hemodynamic studies and total toxicity score after standard heparin reversal at different rates, dogs
# Method: Hemodynamic studies were conducted by measuring mean arterial pressure (MAP) in mm Mercury, maximum percent changes in cardiac output (CO) and systemic oxygen consumption (VO2), and heart rate (HR) in beats per minute. Measurements and calculations were made at baseline, before LMWH administration, 3 minutes before reversal, every 30 seconds for 5 minutes after reversal.
# as §5
# [13] = Maximum hemodynamic changes and total toxicity score after standard heparin reversal, cell adhesion ligand analogs, canine study; details: dogs, agent over 10 seconds
# Method: In these studies, the anticoagulation-reversing agents were administered over a 10 second interval to maximize the hemodynamic effects.
# Hemodynamic studies were conducted by measuring mean blood pressure (Mean BP) in mm Mercury, maximum percent changes in cardiac output (CO) and systemic oxygen consumption (VO2), and heart rate (HR) in beats per minute. Measurements and calculations were made at baseline, before administration of standard, unfractionated heparin, 3 minutes before reversal, every 30 seconds for 5 minutes after reversal.
# Total toxicity scores (TTS) were developed in accordance with the method described hereinabove that reflected maximum declines in each of four parameters (MAP, CO, VO2 and HR) over the first 5 minutes after reversal.
# [14] = administered over 10 sec, 3 min
# [15] = administered over 10 sec, 10 min
# [16] = administered over 10 sec, 30 min
# [17] = administered over 3 min, 10 min
# [18] = administered over 3 min, 30 min
# [19] = dogs, Logiparin, administered over 3 min
substance,measurement,setting,value
"PR4 S3 RPVR5 PRVSR6 G2 R4 [Protamine [+21], reference compound]",platelet counts,[1],thrombocytopenia
same,aPTT reversal,"LMWH (LHN-1, Logiparin) [2]; dogs, 3 minute measurement",50%
same,aPTT reversal,"LMWH (LHN-1, Logiparin) [2]; dogs, 10 minute measurement",83%
same,aPTT reversal,"LMWH (LHN-1, Logiparin) [2]; dogs, 30 minute measurement",78%
same,"Percent reversal of LMWH anticoagulation, ACT","LMWH (LHN-1, Logiparin) [2]; dogs, Logiparin 150 IU/kg, agent 1.5 mg/kg IV after 30 min, 3 min post-administration, corrected for metabolism",99%
same,"Percent reversal of LMWH anticoagulation, FNa","LMWH (LHN-1, Logiparin) [2]; same study, 3 min",99%
same,"Percent reversal of LMWH anticoagulation, FXa","LMWH (LHN-1, Logiparin) [2]; same study, 3 min",63%
same,"Percent reversal of LMWH anticoagulation, TCT","LMWH (LHN-1, Logiparin) [2]; same study, 3 min",100%
same,"Percent reversal of LMWH anticoagulation, ACT","LMWH (LHN-1, Logiparin) [2]; same study, 10 min",88%
same,"Percent reversal of LMWH anticoagulation, FXa","LMWH (LHN-1, Logiparin) [2]; same study, 10 min",45%
same,"Percent reversal of LMWH anticoagulation, TCT","LMWH (LHN-1, Logiparin) [2]; same study, 10 min",98%
same,"Percent reversal of LMWH anticoagulation, ACT","LMWH (LHN-1, Logiparin) [2]; same study, 30 min",82%
same,"Percent reversal of LMWH anticoagulation, FNa","LMWH (LHN-1, Logiparin) [2]; same study, 30 min",86%
same,"Percent reversal of LMWH anticoagulation, FXa","LMWH (LHN-1, Logiparin) [2]; same study, 30 min",44%
same,"Percent reversal of LMWH anticoagulation, TCT","LMWH (LHN-1, Logiparin) [2]; same study, 30 min",96%
same,mean decline in platelet count,[3],-43%
same,"Percent reversal of LMWH anticoagulation, FNa","LMWH (LHN-1, Logiparin) [4]; [14]",96%
same,"Percent reversal of LMWH anticoagulation, FXa","LMWH (LHN-1, Logiparin) [4]; [14]",63%
same,"Percent reversal of LMWH anticoagulation, TCT","LMWH (LHN-1, Logiparin) [4]; [14]",99%
same,"Percent reversal of LMWH anticoagulation, ACT","LMWH (LHN-1, Logiparin) [4]; [15]",83%
same,"Percent reversal of LMWH anticoagulation, FXa","LMWH (LHN-1, Logiparin) [4]; [15]",45%
same,"Percent reversal of LMWH anticoagulation, TCT","LMWH (LHN-1, Logiparin) [4]; [15]",98%
same,"Percent reversal of LMWH anticoagulation, ACT","LMWH (LHN-1, Logiparin) [4]; [16]",78%
same,"Percent reversal of LMWH anticoagulation, FNa","LMWH (LHN-1, Logiparin) [4]; [16]",86%
same,"Percent reversal of LMWH anticoagulation, TCT","LMWH (LHN-1, Logiparin) [4]; [16]",96%
same,"Percent reversal of LMWH anticoagulation, FNa","LMWH (LHN-1, Logiparin) [4]; administered over 3 min, 3 min",99%
same,"Percent reversal of LMWH anticoagulation, FXa","LMWH (LHN-1, Logiparin) [4]; administered over 3 min, 3 min",68%
same,"Percent reversal of LMWH anticoagulation, TCT","LMWH (LHN-1, Logiparin) [4]; administered over 3 min, 3 min",100%
same,"Percent reversal of LMWH anticoagulation, ACT","LMWH (LHN-1, Logiparin) [4]; [17]",87%
same,"Percent reversal of LMWH anticoagulation, FNa","LMWH (LHN-1, Logiparin) [4]; [17]",98%
same,"Percent reversal of LMWH anticoagulation, FXa","LMWH (LHN-1, Logiparin) [4]; [17]",53%
same,"Percent reversal of LMWH anticoagulation, TCT","LMWH (LHN-1, Logiparin) [4]; [17]",99%
same,"Percent reversal of LMWH anticoagulation, ACT","LMWH (LHN-1, Logiparin) [4]; [18]",80%
same,"Percent reversal of LMWH anticoagulation, FNa","LMWH (LHN-1, Logiparin) [4]; [18]",92%
same,"Percent reversal of LMWH anticoagulation, FXa","LMWH (LHN-1, Logiparin) [4]; [18]",45%
same,"Percent reversal of LMWH anticoagulation, TCT","LMWH (LHN-1, Logiparin) [4]; [18]",98%
same,"Percent reversal of LMWH anticoagulation, ACT","LMWH (LHN-1, Logiparin) [4]; dogs, Logiparin, agent administered over 10 sec, 3 min post-administration",96%
same,"Percent reversal of LMWH anticoagulation, ACT","LMWH (LHN-1, Logiparin) [4]; dogs, Logiparin, agent administered over 3 min, 3 min post-administration",99%
same,Maximal decline in leukocyte count,"[5]; dogs, Logiparin, administered over 10 sec",-3%
same,Maximal decline in leukocyte count,[5]; [19],-26%
same,Maximal thrombocytopenia,[5]; [19],-32%
same,bleeding time,"[5]; selected animals, given over a 3 minute interval",≤ 8 min
same,IIa Reversal,[6],98%
same,Xa Reversal,[6],99%
same,Platelet (percent change in platelet count),[7],-40%
same,cases with significant systemic arterial hypertension and pulmonary artery hypertension,[8],about 4%
same,maximum mean increase in pulmonary artery diastolic (PAD) pressure,[9],+10 mm Mercury
same,maximum mean increase in pulmonary artery systolic (PAS) pressure,[9],+10 mm Mercury
same,ΔHR,[9],-18 beats per minute
same,ΔMAP,[9],-32 mm Mercury
same,Total Toxicity Score,"[9]; first 5 minutes after reversal, 1:1 peptide to LMWH",-7.6 ± 4.8
same,ΔCO,[9]; maximum percent change,-32%
same,ΔVO2,[9]; maximum percent change,-26%
same,"Maximum hemodynamic change, Mean BP","[10]; Enoxaparin 100 IU/kg, 5 minutes",-7 mm Mercury
same,"Maximum hemodynamic change, CO","[10]; Enoxaparin, 5 minutes",-23%
same,"Maximum hemodynamic change, HR","[10]; Enoxaparin, 5 minutes",-17 beats/min
same,"Maximum hemodynamic change, VO2","[10]; Enoxaparin, 5 minutes",-23%
same,Total Toxicity Score (TTS),"[10]; Enoxaparin, listed as Prot[+21]",-5.77
same,Total Toxicity Score (TTS),"[10]; Enoxaparin, listed as [+21] n-protamine",-5.77 ± 3.46
same,Total Toxicity Score,[11]; administered over 10 sec,-6.4 ± 3.8
same,ΔCO,[11]; administered over 10 sec,-32%
same,ΔHr,[11]; administered over 10 sec,-18 beats per minute
same,ΔMAP,[11]; administered over 10 sec,-32 mm Mercury
same,ΔVO2,[11]; administered over 10 sec,-26%
same,Total Toxicity Score,[11]; administered over 3 min,-7.2 ± 3.5
same,ΔCO,[11]; administered over 3 min,-28%
same,ΔHr,[11]; administered over 3 min,-36 beats per minute
same,ΔMAP,[11]; administered over 3 min,-18 mm Mercury
same,ΔVO2,[11]; administered over 3 min,-23%
same,Total Toxicity Score,[12]; administered over 10 sec,-7.1 ± 4.63
same,Total Toxicity Score,[12]; administered over 3 min,-5.66 ± 4.04
same,"Maximum hemodynamic change, Mean BP","[13]; standard heparin 150 IU/kg IV, 5 minutes",-31 mm Mercury
same,"Maximum hemodynamic change, CO","[13]; standard heparin, 5 minutes",-36%
same,"Maximum hemodynamic change, HR","[13]; standard heparin, 5 minutes",-27 beats/min
same,"Maximum hemodynamic change, VO2","[13]; standard heparin, 5 minutes",-32%
same,Total Toxicity Score,[13]; standard unfractionated heparin,-8.02 ± 5.20
